The supplement of paper PMC10126150
± gives the standard deviation of the averaged measurements.

System: ATP
Test: switch fluorescence ratio, 500 uM ATP over buffer (Cy3 cluster intensity, sum of 5 cycles each) (fold (ratio)); higher = stronger signal-on switching upon ATP binding; sequences stand for … in TCGTCGGCAGCGTCAGATGTGTATAAGAGACAGTTTTTTTTTTTTTTTTTTTTTTTTT…TC
Conditions: aptamer strand: ATP DNA aptamer (quencher-CACCTGGGGGAGTATTGCGGAGGAAGG + anchor), 100 nM annealed; ATP concentration: 500 uM
Method in brief: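 Values give the fluorescence ratio for each switch-domain sequence, averaged from per-cluster ratios of summed target-cycle to summed buffer-cycle Cy3 intensity. The Cy3-labelled switching-strand clusters sat on a modified Illumina MiSeq flow-cell, were annealed to 100 nM quencher-labelled ATP aptamer, and were imaged in selection buffer, then after 15 min with 500 uM ATP at 22 °C. Five cycles ran with NaOH stripping and re-annealing between them, and clusters outside 100-1000 RFU were excluded.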
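Note: ATP exposure 15 min at 22 °C before imaging.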

Sequence	switch fluorescence ratio
TATGAATTGG	1 ± 0.018
TATGACGTTA	1 ± 0.048
TATGAGATTA	0.9935 ± 0.004
TATGAGGAAC	1.09 ± 0.14
TATGAGGCTT	0.999 ± 0.028
TATGAGGGGT	1.13 ± 0.047
TATGATAGGC	0.953 ± 0.058
TATGATGTGC	0.969 ± 0.017
TATGATTTGT	1 ± 0.019
TATGATTTTG	0.993 ± 0.02
TATGCATTAA	1.01 ± 0.021
TATGCCGGGG	0.988 ± 0.057
TATGCGGGGC	1.1 ± 0.12
TATGCTAAGG	0.996 ± 0.025
TATGGACA	1.05 ± 0.01
TATGGACGTT	1.03 ± 0.053
TATGGAGGGC	1.06 ± 0.041
TATGGATCTT	0.983 ± 0.027
TATGGATGGG	0.961 ± 0.02
TATGGATTGG	0.977 ± 0.029
TATGGCATGG	1 ± 0.05
TATGGCCAGT	1.03 ± 0.033
TATGGCCGCC	1.01 ± 0.043
TATGGCGACA	1.01 ± 0.087
TATGGGAGGC	1.01 ± 0.059

Sequence	switch fluorescence ratio
TATGGGCACG	0.99 ± 0.024
TATGGGCCAG	0.996 ± 0.02
TATGGGGAGC	0.998 ± 0.044
TATGGGGAGT	0.981 ± 0.046
TATGGGGATT	0.991 ± 0.037
TATGGGGGTG	1.05 ± 0.043
TATGGGGTGG	1.01 ± 0.015
TATGGGGTTA	0.981 ± 0.028
TATGGGGTTG	1.03 ± 0.12
TATGGGTACT	1 ± 0.027
TATGGGTTTG	0.994 ± 0.04
TATGGTATCT	0.994 ± 0.024
TATGGTCACC	1.03 ± 0.03
TATGGTCATA	0.999 ± 0.032
TATGGTCATT	0.99 ± 0.015
TATGGTCCTG	0.962 ± 0.023
TATGGTTG	0.99 ± 0.057
TATGGTTTCC	1.03 ± 0.05
TATGTAAATT	1.01 ± 0.012
TATGTAATGG	1.02 ± 0.036
TATGTAGAGA	0.99 ± 0.023
TATGTATGC	1.03 ± 0.014
TATGTCATCG	1.01 ± 0.028
TATGTCGCCA	1.01 ± 0.024
TATGTGTGCG	1.02 ± 0.017

Sequence	switch fluorescence ratio
TATGTGTTTT	1.031 ± 0.0034
TATGTTACGG	1.03 ± 0.0075
TATGTTGGGT	1.02 ± 0.037
TATGTTGTTT	1.04 ± 0.023
TATGTTTGGC	1 ± 0.04
TATGTTTTAT	1.02 ± 0.048
TATTAAGAAT	0.987 ± 0.0043
TATTAAGGAT	1 ± 0.031
TATTAATAGA	0.999 ± 0.061
TATTAATCTT	1.02 ± 0.014
TATTACACTG	1.03 ± 0.033
TATTACGGCG	1.02 ± 0.03
TATTACTATT	0.999 ± 0.023
TATTAGAGCG	1.02 ± 0.025
TATTAGGGGT	1.01 ± 0.023
TATTAGTGGC	0.9403 ± 0.0088
TATTAGTTTT	1.02 ± 0.047
TATTATAAAT	0.98 ± 0.016
TATTATAGAT	0.99997 ± 0.00069
TATTATCGGA	0.996 ± 0.048
TATTATGGCG	1.04 ± 0.014
TATTATGGGA	0.991 ± 0.035
TATTATGGGT	0.982 ± 0.036
TATTATTGGA	1 ± 0.042
TATTATTGGG	1 ± 0.0054

Sequence	switch fluorescence ratio
TATTCCTTGG	0.966 ± 0.012
TATTCCTTTT	1.01 ± 0.013
TATTCGGAGC	1.01 ± 0.037
TATTCGGGGT	0.99 ± 0.028
TATTGACAGA	1.022 ± 0.0053
TATTGACATT	1.016 ± 0.0071
TATTGAGACC	1.03 ± 0.036
TATTGAGATG	0.998 ± 0.046
TATTGATTGG	0.9977 ± 0.0062
TATTGCCAGG	1.1 ± 0.036
TATTGCCGCA	1.057 ± 0.0085
TATTGCTATT	0.972 ± 0.017
TATTGCTTTC	1.03 ± 0.018
TATTGGAGTT	1.04 ± 0.015
TATTGGATGC	0.97 ± 0.032
TATTGGATTA	1.01 ± 0.026
TATTGGCTTG	0.985 ± 0.013
TATTGGGAAT	0.985 ± 0.01
TATTGGGCCC	0.9954 ± 0.0019
TATTGTCGTT	1.02 ± 0.029
TATTGTGATA	0.991 ± 0.039
TATTGTGCGG	1.01 ± 0.037
TATTGTGGAG	0.983 ± 0.024
TATTGTGGTT	1 ± 0.031
TATTGTTAAA	0.987 ± 0.029

Sequence	switch fluorescence ratio
TATTGTTATG	1 ± 0.028
TATTGTTTGA	0.9578 ± 0.0067
TATTTAAAGC	0.9768 ± 0.0092
TATTTAAAGT	1.02 ± 0.049
TATTTAAT	1.07 ± 0.11
TATTTAATGA	1.54 ± 0.81
TATTTACCGC	1.13 ± 0.034
TATTTAGGTT	1.006 ± 0.006
TATTTAGTCG	0.975 ± 0.019
TATTTATACA	1.029 ± 0.0054
TATTTATTGC	1.01 ± 0.037
TATTTATTTG	1.02 ± 0.045
TATTTCGAAC	1.02 ± 0.015
TATTTCTCGT	1.01 ± 0.056
TATTTGATGC	1.02 ± 0.036
TATTTGATTG	1.001 ± 0.0041
TATTTGCGCG	0.967 ± 0.037
TATTTGGGTG	1.05 ± 0.023
TATTTGGTTG	0.995 ± 0.018
TATTTTAGGT	1.01 ± 0.048
TATTTTAGTA	1.01 ± 0.03
TATTTTATTA	1.011 ± 0.0085
TATTTTCGGG	1.011 ± 0.0078
TATTTTGGGA	1.02 ± 0.021
TATTTTGTGA	0.952 ± 0.018

Sequence	switch fluorescence ratio
TATTTTGTTA	1.01 ± 0.047
TATTTTTAGT	1 ± 0.027
TATTTTTATT	1.01 ± 0.021
TATTTTTCGG	0.984 ± 0.041
TATTTTTGCT	0.981 ± 0.032
TATTTTTTTC	1 ± 0.018
TCAAACGTAT	1.06 ± 0.022
TCAAAGAATA	1.02 ± 0.029
TCAAAGTCAT	0.991 ± 0.0068
TCAAAGTCCT	1.01 ± 0.02
TCAAAGTTTT	1.01 ± 0.023
TCAAATTAGC	0.986 ± 0.023
TCAAATTTTC	1.02 ± 0.026
TCAACAGGGA	1.08 ± 0.15
TCAAGAAGGT	1 ± 0.018
TCAAGAGTTA	0.99 ± 0.035
TCAAGGGTGA	1.03 ± 0.022
TCAAGTATCA	1.02 ± 0.02
TCAAGTGGGG	1.01 ± 0.053
TCAAGTTAAG	0.9772 ± 0.0014
TCAAGTTTTT	1.012 ± 0.0044
TCAATATGTT	1.004 ± 0.0073
TCAATCAGAG	1.01 ± 0.0045
TCAATCGTGG	1.01 ± 0.021
TCAATCTGGG	1.006 ± 0.0066

Sequence	switch fluorescence ratio
TCAATCTTCT	1.032 ± 0.0095
TCAATGATGG	1 ± 0.0046
TCAATTATAC	1.94 ± 0.41
TCAATTCTAC	1.02 ± 0.041
TCAATTTGTT	0.992 ± 0.033
TCACAGCTGG	1.04 ± 0.016
TCACAGGTTT	1.05 ± 0.017
TCACATAGTT	1.01 ± 0.0061
TCACATTATT	1.04 ± 0.02
TCACCTTATT	1.03 ± 0.022
TCACGAACCT	1.69 ± 0.1
TCACGAGTTT	1.014 ± 0.0038
TCACGGAAGT	1.022 ± 0.0036
TCACGGGGGC	0.976 ± 0.061
TCACGGGTTC	1.03 ± 0.031
TCACGTGGCT	0.975 ± 0.015
TCACGTTGTT	0.981 ± 0.036
TCACTATACA	1.315 ± 0.0077
TCACTATTTA	1.013 ± 0.0082
TCACTATTTT	1.01 ± 0.02
TCAGAAGGCT	0.999 ± 0.065
TCAGAATATT	0.978 ± 0.023
TCAGAGATGA	0.95 ± 0.026
TCAGAGGCTT	0.996 ± 0.04
TCAGAGTGCT	1.03 ± 0.025

Sequence	switch fluorescence ratio
TCAGATCTGT	1 ± 0.024
TCAGATGGTG	1.02 ± 0.014
TCAGCAGGTT	2.85 ± 2.2
TCAGCATTTT	1.01 ± 0.046
TCAGGAGGGG	0.997 ± 0.02
TCAGGGGGAC	1.78 ± 1.3
TCAGGGGGGC	1.28 ± 0.62
TCAGGGTTAT	1.02 ± 0.0034
TCAGGGTTGT	1.02 ± 0.031
TCAGGGTTTC	0.984 ± 0.013
TCAGGTAATT	1.03 ± 0.031
TCAGGTGCGG	1.16 ± 0.061
TCAGGTTAGG	1.008 ± 0.0065
TCAGTAATGA	1.0075 ± 7.1e-05
TCAGTATAGC	1.018 ± 0.004
TCAGTCAACC	1.1 ± 0.017
TCAGTCAGTT	0.991 ± 0.048
TCAGTCATTA	0.989 ± 0.016
TCAGTCTGCC	1.03 ± 0.052
TCAGTCTTTT	0.998 ± 0.016
TCAGTGAACT	1 ± 0.039
TCAGTTGGGA	0.9697 ± 0.0062
TCAGTTTTTT	0.999 ± 0.035
TCATAAACTT	1.09 ± 0.058
TCATACGGTA	1.179 ± 0.005
